{"source": "patent US20240197839A1", "about": "“Recombinant Human Acid Alpha-Glucosidase and Uses Thereof” (Amicus Therapeutics, Inc., priority 2021, published 2024)", "key": {"[1]": {"assay": "thermostability assay using SYPRO Orange", "type": "physicochemical", "procedure": "The stability of ATB200 in acidic or neutral pH buffers was evaluated in a thermostability assay using SYPRO Orange, as the fluorescence of the dye increases when proteins denature. […] As summarized in Table 6, the addition of AT2221 increased the melting temperature (Tm) of ATB200 by nearly 10° C."}, "CIMPR [2]": {"target": "T1, CIMPR (Homo sapiens, UniProt P11717)", "T1 sequence (P11717 41-2491, species assumed)": "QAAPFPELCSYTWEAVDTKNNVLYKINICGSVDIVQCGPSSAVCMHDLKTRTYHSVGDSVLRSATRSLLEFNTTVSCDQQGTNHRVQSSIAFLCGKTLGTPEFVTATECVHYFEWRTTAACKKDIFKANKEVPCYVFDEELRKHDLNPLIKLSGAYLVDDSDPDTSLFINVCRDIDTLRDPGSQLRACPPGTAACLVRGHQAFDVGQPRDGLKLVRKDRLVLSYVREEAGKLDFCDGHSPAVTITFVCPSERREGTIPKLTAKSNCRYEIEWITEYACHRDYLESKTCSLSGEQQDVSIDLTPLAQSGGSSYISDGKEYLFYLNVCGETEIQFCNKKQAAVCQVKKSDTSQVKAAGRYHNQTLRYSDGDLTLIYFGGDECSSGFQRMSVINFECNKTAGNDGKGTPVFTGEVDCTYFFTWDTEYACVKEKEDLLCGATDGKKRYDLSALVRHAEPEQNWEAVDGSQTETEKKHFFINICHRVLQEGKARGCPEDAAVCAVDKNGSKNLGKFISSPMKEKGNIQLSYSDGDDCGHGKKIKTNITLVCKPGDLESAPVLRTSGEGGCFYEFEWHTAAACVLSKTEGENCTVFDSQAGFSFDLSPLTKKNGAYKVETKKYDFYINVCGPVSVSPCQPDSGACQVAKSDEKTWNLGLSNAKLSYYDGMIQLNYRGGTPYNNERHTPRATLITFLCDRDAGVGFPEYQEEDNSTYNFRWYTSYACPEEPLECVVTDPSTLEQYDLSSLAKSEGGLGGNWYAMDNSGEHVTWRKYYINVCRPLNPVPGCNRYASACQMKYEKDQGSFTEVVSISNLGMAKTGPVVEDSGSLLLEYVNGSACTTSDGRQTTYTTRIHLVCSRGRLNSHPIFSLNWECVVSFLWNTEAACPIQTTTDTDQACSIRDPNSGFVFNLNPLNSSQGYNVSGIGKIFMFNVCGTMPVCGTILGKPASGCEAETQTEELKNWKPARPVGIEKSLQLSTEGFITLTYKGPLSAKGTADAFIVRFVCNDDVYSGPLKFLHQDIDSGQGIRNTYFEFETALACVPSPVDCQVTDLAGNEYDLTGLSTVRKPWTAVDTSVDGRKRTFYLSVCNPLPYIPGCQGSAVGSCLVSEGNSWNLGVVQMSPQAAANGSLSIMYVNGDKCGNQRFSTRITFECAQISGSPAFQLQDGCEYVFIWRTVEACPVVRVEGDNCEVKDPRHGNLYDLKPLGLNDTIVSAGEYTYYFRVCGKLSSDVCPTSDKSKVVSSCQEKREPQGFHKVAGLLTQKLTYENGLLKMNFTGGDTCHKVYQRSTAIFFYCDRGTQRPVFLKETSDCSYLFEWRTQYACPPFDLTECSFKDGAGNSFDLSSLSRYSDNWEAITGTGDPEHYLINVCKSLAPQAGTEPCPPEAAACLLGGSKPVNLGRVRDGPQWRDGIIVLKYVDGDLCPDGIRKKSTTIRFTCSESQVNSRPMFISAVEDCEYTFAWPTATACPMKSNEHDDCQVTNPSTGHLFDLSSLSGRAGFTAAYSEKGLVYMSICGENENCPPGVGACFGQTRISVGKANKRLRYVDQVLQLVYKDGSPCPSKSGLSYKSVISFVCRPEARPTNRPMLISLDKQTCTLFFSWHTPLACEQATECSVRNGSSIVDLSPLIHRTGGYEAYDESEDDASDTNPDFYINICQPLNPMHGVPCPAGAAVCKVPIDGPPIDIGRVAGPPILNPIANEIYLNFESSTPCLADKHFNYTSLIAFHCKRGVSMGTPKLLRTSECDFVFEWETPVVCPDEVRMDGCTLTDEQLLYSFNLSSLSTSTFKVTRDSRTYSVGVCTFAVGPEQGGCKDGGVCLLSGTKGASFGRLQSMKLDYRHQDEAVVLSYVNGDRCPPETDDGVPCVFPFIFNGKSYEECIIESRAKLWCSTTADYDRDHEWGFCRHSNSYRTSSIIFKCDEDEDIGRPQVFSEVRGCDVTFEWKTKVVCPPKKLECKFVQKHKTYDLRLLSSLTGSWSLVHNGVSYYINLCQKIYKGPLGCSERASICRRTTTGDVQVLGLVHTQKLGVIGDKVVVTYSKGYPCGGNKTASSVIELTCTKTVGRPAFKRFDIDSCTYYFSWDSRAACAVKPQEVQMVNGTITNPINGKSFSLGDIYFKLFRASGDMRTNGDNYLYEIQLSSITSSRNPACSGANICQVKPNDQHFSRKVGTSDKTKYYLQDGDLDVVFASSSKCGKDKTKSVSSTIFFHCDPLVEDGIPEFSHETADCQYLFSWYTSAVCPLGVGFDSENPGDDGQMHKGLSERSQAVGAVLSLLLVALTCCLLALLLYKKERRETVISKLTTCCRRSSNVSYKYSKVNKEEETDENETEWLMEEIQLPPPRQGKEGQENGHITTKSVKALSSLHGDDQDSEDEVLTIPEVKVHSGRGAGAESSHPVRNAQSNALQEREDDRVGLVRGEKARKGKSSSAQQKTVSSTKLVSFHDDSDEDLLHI", "assay": "CIMPR plate binding assay", "procedure": "In addition to having a greater percentage of rhGAA that can bind to the CIMPR, it is important to understand the quality of that interaction. LUMIZYME® and ATB200 receptor binding was determined using a CIMPR plate binding assay. Briefly, CIMPR-coated plates were used to capture GAA. Varying concentrations of rhGAA were applied to the immobilized receptor and unbound rhGAA was washed off. The amount of remaining rhGAA was determined by GAA activity. […] For LUMIZYME®, there is on average only 10% of molecules having a bis-phosphorylated N-glycan. In contrast, on average every rhGAA molecule in ATB200 has at least one bis-phosphorylated N-glycan.\nN-glycan analysis via MALDI-TOF mass spectrometry confirmed that on average each ATB200 molecule contains at least one natural bis-M6P N-glycan structure."}, "Gaa KO mice": {"tested_on": "Gaa KO mice", "assay": "single fiber analysis (LAMP1/LC3 co-immunofluorescence, white gastrocnemius)", "type": "in vivo", "text": "FIG. 17 depicts co-immunofluorescent staining of LAMP1 (green) (see for example, “B”) and LC3 (red) (see, for example, “A”) in single fibers isolated from the white gastrocnemius of Gaa KO mice treated with a vehicle, alglucosidase alfa, or ATB200. “C” depicts clearance of autophagic debris and absence of enlarged lysosome. A minimum of 30 fibers were examined from each animal.\nAs a result, a significant portion of muscle fibers analyzed (36-60%) from ATB200-treated mice appeared normal or near-normal."}, "[3]": {"tested_on": "normal and Pompe fibroblast cell lines", "assay": "cellular uptake of rhGAA in fibroblasts (internalized GAA by 4MU-α-Glucoside hydrolysis)", "type": "cell-based", "procedure": "The relative cellular uptake of ATB200 and LUMIZYME® rhGAA were compared using normal and Pompe fibroblast cell lines. Comparisons involved 5-100 nM of ATB200 according to the disclosure with 10-500 nM conventional rhGAA product LUMIZYME®. After 16-hr incubation, external rhGAA was inactivated with TRIS base and cells were washed 3-times with PBS prior to harvest. Internalized GAA measured by 4MU-α-Glucoside hydrolysis and was graphed relative to total cellular protein and the results appear in FIGS. 11A-11C."}, "CIMPR [4]": {"target": "T1, CIMPR", "assay": "CIMPR affinity chromatography (bound vs unbound rhGAA by GAA activity)", "type": "binding", "settings": "CIMPR affinity column, fraction of total enzyme by GAA activity", "text": "Multiple batches of the rhGAA according to the disclosure were produced in shake flasks and in perfusion bioreactors using CHO cell line GA-ATB200, the product of which is referred to as “ATB200.” Weak anion exchange (“WAX”) liquid chromatography was used to fractionate ATB200 rhGAA according to terminal phosphate and sialic acid. Elution profiles were generated by eluting the ERT with increasing amount of salt. The profiles were monitored by UV (A280 nm).\nTo evaluate the ability of the conventional rhGAAs in MYOZYME® and LUMIZYME® to interact with the CIMPR, the two conventional rhGAA preparations were injected onto a CIMPR affinity column (which binds rhGAA having M6P groups) and the flow through collected. The bound material was eluted with a free M6 gradient. Fractions were collected in 96-well plate and GAA activity assayed by 4MU-α-glucosidase substrate. The relative amounts of unbound (flow through) and bound (M6P eluted) rhGAA were determined based on GAA activity and reported as the fraction of total enzyme. […] Indeed, only 27% of the rhGAA in MYOZYME® and 22% of the rhGAA in LUMIZYME® contained M6P that can be productive to target it to the CIMPR on muscle cells."}}, "note": "Marks after values point to notes of the source that are not given here.", "data": [{"molecule": "CCCCN1C[C@H](O)[C@@H](O)[C@H](O)[C@H]1CO", "note": "[AT2221, (2R,3R,4R,5S)-1-butyl-2-(hydroxymethyl)piperidine-3,4,5-triol]", "values": [{"measurement": "increase of the melting temperature (Tm) of ATB200 by addition of AT2221", "setting": "[1]; pH 7.4", "result": "~10", "unit": "°C"}, {"measurement": "stabilization of ATB200 by AT2221", "setting": "[1]; pH 7.4, FIG. 12", "result": "stabilized ATB200 at pH 7.4 in a concentration-dependent manner"}]}, {"molecule": "ATB200: recombinant human acid α-glucosidase with a high content of N-glycans bearing mono-M6P and bis-M6P, produced from a GA-ATB200 CHO cell line", "values": [{"measurement": "binding to CIMPR compared with LUMIZYME", "setting": "CIMPR [2]; CIMPR-coated plates, varying rhGAA concentrations (FIG. 10A)", "result": "significantly better"}, {"measurement": "Kd", "setting": "CIMPR [2]; M6P receptor plate binding assays", "result": "2 to 4", "unit": "nM"}, {"measurement": "Fibers with Autophagy Buildup", "setting": "Gaa KO mice; Gaa KO mice", "result": "40-64%*"}, {"measurement": "area / extent of autophagic buildup", "setting": "Gaa KO mice; single fibers, compared to Vehicle- or alglucosidase alfa-treated group", "result": "reduced to various degrees"}, {"measurement": "Tm", "setting": "[1]; pH 5.2", "result": 67.3, "unit": "°C"}, {"measurement": "Tm", "setting": "[1]; pH 7.4", "result": 56.2, "unit": "°C"}, {"measurement": "Tm", "setting": "[1]; pH 7.4 + 10 μM AT2221", "result": 61.6, "unit": "°C"}, {"measurement": "Tm", "setting": "[1]; pH 7.4 + 30 μM AT2221", "result": 62.9, "unit": "°C"}, {"measurement": "Tm", "setting": "[1]; pH 7.4 + 100 μM AT2221", "result": 66.0, "unit": "°C"}, {"measurement": "internalization into normal and Pompe fibroblast cells compared with LUMIZYME", "setting": "[3]; 16-hr incubation, FIGS. 11A-11B", "result": "internalized to a greater degree"}, {"measurement": "concentration that saturates cellular receptors", "setting": "[3]; 16-hr incubation, normal and Pompe fibroblasts", "result": "about 20 nM"}, {"measurement": "uptake efficiency constant (Kuptake)", "setting": "[3]; extrapolated from uptake curves, FIG. 11C", "result": "2-3 nm"}]}, {"molecule": "MYOZYME®: conventional rhGAA product containing alglucosidase alfa, marketed by Genzyme", "values": [{"measurement": "rhGAA that did not bind to the CIMPR", "setting": "CIMPR [4]; flow through", "result": 73, "unit": "%"}, {"measurement": "rhGAA that binds to the CIMPR (M6P eluted)", "setting": "CIMPR [4]", "result": 27, "unit": "%"}, {"measurement": "lysosomes and autophagic buildup compared to vehicle-treated mice", "setting": "Gaa KO mice; single fibers, FIG. 17", "result": "did not show any significant difference"}]}]}
